Reference: the supplement of paper PMC9233669
Variants at the floor of the assay were thinned out.

How the values were obtained:
biotinyl-Phe-oxazolone = experiment: self-aminoacylation, catalytic enhancement (BFO) (fold over background); higher = more active; k-Seq, kA / k0A0; sequences stand for … in GGGAAUGGAUCCACAUCUACGAAUUC…UUCACUGCAGACUUGACGAAGCUG
Method in brief: (§1)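 Working in 50 μL HEPES/NaCl/KCl/MgCl2/CaCl2 buffer with 5% acetonitrile at pH 6.9–7.0, mutagenized RNA pools (0.43 μM; 21-nt variable region) were reacted with 2–1250 μM of each biotinyl-aminoacyl-oxazolone for 90 minutes at room temperature. Streptavidin capture followed, with quantification by triplicate qPCR and Illumina sequencing. Catalytic enhancement is reported as median kA over the uncatalyzed rate, the low-activity peak of a bimodal Gaussian fit to the data.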

biotinyl-Ile-oxazolone = experiment: self-aminoacylation, catalytic enhancement (BIO) (fold over background); higher = more active; k-Seq, kA / k0A0; sequences stand for … in GGGAAUGGAUCCACAUCUACGAAUUC…UUCACUGCAGACUUGACGAAGCUG
Method in brief: as §1

biotinyl-Met-oxazolone = experiment: self-aminoacylation, catalytic enhancement (BMO) (fold over background); higher = more active; k-Seq, kA / k0A0; sequences stand for … in GGGAAUGGAUCCACAUCUACGAAUUC…UUCACUGCAGACUUGACGAAGCUG
Method in brief: as §1

biotinyl-Val-oxazolone = experiment: self-aminoacylation, catalytic enhancement (BVO) (fold over background); higher = more active; k-Seq, kA / k0A0; sequences stand for … in GGGAAUGGAUCCACAUCUACGAAUUC…UUCACUGCAGACUUGACGAAGCUG
Method in brief: as §1

biotinyl-Leu-oxazolone = experiment: self-aminoacylation, catalytic enhancement (BLO) (fold over background); higher = more active; k-Seq, kA / k0A0; sequences stand for … in GGGAAUGGAUCCACAUCUACGAAUUC…UUCACUGCAGACUUGACGAAGCUG
Method in brief: as §1

biotinyl-Trp-oxazolone = experiment: self-aminoacylation, catalytic enhancement (BWO) (fold over background); higher = more active; k-Seq, kA / k0A0; sequences stand for … in GGGAAUGGAUCCACAUCUACGAAUUC…UUCACUGCAGACUUGACGAAGCUG
Method in brief: as §1

Sequence	self-aminoacylation (biotinyl-Phe-oxazolone)	self-aminoacylation (biotinyl-Ile-oxazolone)	self-aminoacylation (biotinyl-Met-oxazolone)	self-aminoacylation (biotinyl-Val-oxazolone)	self-aminoacylation (biotinyl-Leu-oxazolone)	self-aminoacylation (biotinyl-Trp-oxazolone)
AUUACCCUGUUCAUCGCGUGA [Fam2.1 aminoacylation ribozyme variant]	171	9.25	23.5	11.7	25.1	25.5
AUGCACCUAGGCCAUCGGGUG [Fam2.2 aminoacylation ribozyme variant]	27.6	3.32	3.87	3.41	4.53	4.46
AUACACCUAGGUCAUAGGGUG [Fam2.2 aminoacylation ribozyme variant]	3.76	1.35	1.23	1.43	1.36	2.14
CCACGCUUCAAGCAAUAGGUC [Fam1B.1 aminoacylation ribozyme variant]	0.752	0.51	0.597	0.577	0.475	0.367
AAGUUUGCUAAUAGCGGCAAG [Fam3.1 aminoacylation ribozyme variant]	0.964	0.668	0.508	0.646	0.575	0.924
AUUCACAUAGGUCAUCGGGUG [Fam2.2 aminoacylation ribozyme variant]	65.2	5.09	8.47	5.09	10.6	7.83
CCACACUUCAAGCAAGCGUUC [Fam1B.1 aminoacylation ribozyme variant]	0.905	0.689	0.454	0.728	0.516	0.492
AUUUACCUAGGCCAUCGGGUG [Fam2.2 aminoacylation ribozyme variant]	17.4	2.47	3.07	3.2	3.95	3.98
CUACUUCAAGCAAUCGGUCUU [Fam1A.1 aminoacylation ribozyme variant]	6.92	1.07	0.87	1.06	0.97	4.63
AAGAUUGCGAAUAGUCGCAAG [Fam3.1 aminoacylation ribozyme variant]	1.72	1.47	1.17	1.71	1.33	2.46
AUUACCAUGGUCAUCGAGUCA [Fam2.1 aminoacylation ribozyme variant]	0.683	0.821	0.695	0.778	0.823	0.451
AUUACGCGGGUCAUCGAGUGA [Fam2.1 aminoacylation ribozyme variant]	22.7	3.23	5.54	3.31	4.86	5.54
AUUACCCUGGUCAUCGAGCGA [Fam2.1 aminoacylation ribozyme variant]	3.41	2.15	3.51	2.18	3.7	3.33
CCCCACUUCAAGCACUCGGUC [Fam1B.1 aminoacylation ribozyme variant]	11	2.26	2.79	2.79	3.08	4.4
UUUACCCUGGUCAUCCAGUGA [Fam2.1 aminoacylation ribozyme variant]	15.7	3.12	4.91	2.98	4.72	6.23
CUACUUCAGACAAUCGGUCUU [Fam1A.1 aminoacylation ribozyme variant]	1.11	0.967	0.904	0.961	0.919	0.663
AUUACGCUGUUCAUCGAGUGA [Fam2.1 aminoacylation ribozyme variant]	4.19	2.4	3.87	2.71	3.57	4.58
CCUCACUUGAAGCAAUCGGUC [Fam1B.1 aminoacylation ribozyme variant]	0.809	0.636	0.679	0.678	0.607	0.664
AAGUUUGCUAGUAGUCGCGAG [Fam3.1 aminoacylation ribozyme variant]	3.65	1.27	1.08	1.54	1.25	2.01
CGACUUCAUACAAUCGGUCUG [Fam1A.1 aminoacylation ribozyme variant]	1.01	0.939	0.796	0.904	0.738	0.879
AAGUUUGCUAAUACUCUCAAG [Fam3.1 aminoacylation ribozyme variant]	0.931	0.693	0.512	0.721	0.63	0.527
AAGUUUGCUAAUAGUCACAAU [Fam3.1 aminoacylation ribozyme variant]	1.14	1.18	1.18	1.19	0.82	1.11
UUUCACCUAGGCCAUCGGGUG [Fam2.2 aminoacylation ribozyme variant]	20.8	3.27	3.71	4	4.34	4.57
AAGUUUGCUAAUAGUCGCAUA [Fam3.1 aminoacylation ribozyme variant]	1.58	1.21	0.936	1.22	0.954	1.23
AAGUUUACAAAUAGUCGCAAG [Fam3.1 aminoacylation ribozyme variant]	2.51	1.92	1.51	1.66	1.8	1.98
AUUCACCUAGGUCCUCGGGUC [Fam2.2 aminoacylation ribozyme variant]	4.38	1.21	1.51	1.34	1.16	0.77

Sequence	self-aminoacylation (biotinyl-Phe-oxazolone)	self-aminoacylation (biotinyl-Ile-oxazolone)	self-aminoacylation (biotinyl-Met-oxazolone)	self-aminoacylation (biotinyl-Val-oxazolone)	self-aminoacylation (biotinyl-Leu-oxazolone)	self-aminoacylation (biotinyl-Trp-oxazolone)
CCACACCUCAAGGAAUCGGUC [Fam1B.1 aminoacylation ribozyme variant]	0.875	1.34	1.02	1.26	1.34	1.32
AUACUUCAAACAAUAGGUCUG [Fam1A.1 aminoacylation ribozyme variant]	1.25	1.08	0.812	0.923	0.835	0.803
CUACUUAAAACAAUCGGUCUA [Fam1A.1 aminoacylation ribozyme variant]	0.81	0.766	0.729	0.894	0.602	0.711
AUUCACCUAGCUCUUCGGGUG [Fam2.2 aminoacylation ribozyme variant]	10.9	2.08	2.25	2.42	2.62	2.74
AAGUUUGCUAAUAGUCCCCAG [Fam3.1 aminoacylation ribozyme variant]	1.27	1	1.01	0.901	0.928	1.69
AUUCAACUAGGUCAUAGGGUG [Fam2.2 aminoacylation ribozyme variant]	9.13	1.49	2	1.28	2.58	1.47
GUACACUUCAAGCAAUCGGUC [Fam1B.1 aminoacylation ribozyme variant]	21.1	1.55	1.29	1.34	1.64	18.4
AUUCCCCUGGUCAUUGAGUGA [Fam2.1 aminoacylation ribozyme variant]	64.3	4.73	8.79	4.5	8.32	11.7
AUUCGCCUAGGUCCUCGGGUG [Fam2.2 aminoacylation ribozyme variant]	46.8	4.84	6.35	4.56	8.24	6.48
CUGCUUCAACCAAUCGGUCUG [Fam1A.1 aminoacylation ribozyme variant]	79.4	1.31	1.41	1.38	2.45	43.2
AUUAGCCUGGUCAUCGAGUGU [Fam2.1 aminoacylation ribozyme variant]	3.87	2.76	4.71	3.14	4.18	5.12
AUGAACCUGGUCAUCGAGUGA [Fam2.1 aminoacylation ribozyme variant]	5.16	3.31	5.7	3.17	6.61	6.4
ACGUUUACUAAUAGUCGCAAG [Fam3.1 aminoacylation ribozyme variant]	2.57	1.56	1.35	1.53	1.8	1.41
AUGACCCUGCUCAUCGAGUGA [Fam2.1 aminoacylation ribozyme variant]	1.52	1.36	1.83	1.43	1.95	2.47
CCCCACUUCAAGCCAUCGGUC [Fam1B.1 aminoacylation ribozyme variant]	10	2.33	2.87	2.82	2.63	4.79
CUACUUCAAACAAUUGUUCUG [Fam1A.1 aminoacylation ribozyme variant]	0.673	0.619	0.633	0.636	0.611	0.367
CUACUUCAAAGAAUCGGACUG [Fam1A.1 aminoacylation ribozyme variant]	1.29	0.992	0.91	0.808	0.818	0.932
AUUACUCUGGUCAUCCAGUGA [Fam2.1 aminoacylation ribozyme variant]	17.3	3.2	5.01	2.74	5.29	6.01
UCACACUUCAAACAAUCGGUC [Fam1B.1 aminoacylation ribozyme variant]	89.1	1.34	1.66	1.55	2.25	42.8
UUUACCCUGGUCAUCGAGUGU [Fam2.1 aminoacylation ribozyme variant]	542	22.7	82.3	26.3	71.5	75.4
AGACACCUAGGUCAUCGGGUG [Fam2.2 aminoacylation ribozyme variant]	20.6	3.01	3.07	2.32	3.29	4.31
AUUCACCUAGGCCCUCGGGUG [Fam2.2 aminoacylation ribozyme variant]	24.2	2.81	3.26	3.1	3.88	3.75
CUACAUCAAAGAAUCGGUCUG [Fam1A.1 aminoacylation ribozyme variant]	0.801	0.78	0.817	0.68	0.592	0.67
CUUCUUCAAUCAAUCGGUCUG [Fam1A.1 aminoacylation ribozyme variant]	18.9	0.975	0.986	0.956	1.21	11.3
CAGUUUGCUAAUAGUCACAAG [Fam3.1 aminoacylation ribozyme variant]	2.59	1.04	1.04	0.952	1.11	1.3
